# Results: US20100204091
# T1: SIVA2
# T1 chain: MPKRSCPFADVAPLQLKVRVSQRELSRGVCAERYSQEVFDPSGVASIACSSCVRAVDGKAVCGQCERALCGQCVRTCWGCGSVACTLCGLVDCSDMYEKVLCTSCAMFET
# Target: T1, SIVA2
protein,measurement,value
"NF-κB-inducing kinase, NIK, (MAP3K14) (protein) MAVMEMACPGAPGSAVGQQKELPKAKEKTPPLGKKQSSVYKLEAVEKSPVFCGKWEILNDVITKGTAKEGSEAGPAAISIIAQAECENSQEFSPTFSERIFIAGSKQYSQSESLDQIPNNVAHATEGKMARVCWKGKRRSKARKKRKKKSSKSLAHAGVALAKPLPRTPEQESCTIPVQEDESPLGAPYVRNTPQFTKPLKEPGLGQLCFKQLGEGLRPALPRSELHKLISPLQCLNHVWKLHHPQDGGPLPLPTHPFPYSRLPHPFPFHPLQPWKPHPLESFLGKLACVDSQKPLPDPHLSKLACVDSPKPLPGPHLEPSCLSRGAHEKFSVEEYLVHALQGSVSSGQAHSLTSLAKTWAARGSRSREPSPKTEDNEGVLLTEKLKPVDYEYREEVHWATHQLRLGRGSFGEVHRMEDKQTGFQCAVKKVRLEVFRAEELMACAGLTSPRIVPLYGAVREGPWVNIFMELLEGGSLGQLVKEQGCLPEDRALYYLGQALEGLEYLHSRRILHGDVKADNVLLSSDGSHAALCDFGHAVCLQPDGLGKSLLTGDYIPGTETHMAPEVVLGRSCDAKVDVWSSCCMMLHMLNGCHPWTQFFRGPLCLKIASEPPPVREIPPSCAPLTAQAIQEGLRKEPIHRVSAAELGGKVNRALQQVGGLKSPWRGEYKEPRHPPPNQANYHQTLHAQPRELSPRAPGPRPAEETTGRAPKLQPPLPPEPPEPNKSPPLTLSKEESGMWEPLPLSSLEPAPARNPSSPERKATVPEQELQQLEIELFLNSLSQPFSLEEQEQILSCLSIDSLSLSDDSEKNPSKASQSSRDTLSSGVHSWSSQAEARSSSWNMVLARGRPTDTPSYFNGVKVQIQSLNGEHLHIREFHRVKVGDIATGISSQIPAAAFSLVTKDGQPVRYDMEVPDSGIDLQCTLAPDGSFAWSWRVKHGQLENRP",in vitro kinase assay (phosphorylation of SIVA2),NIK readily phosphorylated SIVA2
